The values below come from patent publication US20110243948A1 (LEXICON PHARMACEUTICALS, published 2011).

For experiment [1], the target named is T1, mouse ANGPTL3 (mouse, UniProt Q9R182 17-455, limits assumed).
T1 sequence: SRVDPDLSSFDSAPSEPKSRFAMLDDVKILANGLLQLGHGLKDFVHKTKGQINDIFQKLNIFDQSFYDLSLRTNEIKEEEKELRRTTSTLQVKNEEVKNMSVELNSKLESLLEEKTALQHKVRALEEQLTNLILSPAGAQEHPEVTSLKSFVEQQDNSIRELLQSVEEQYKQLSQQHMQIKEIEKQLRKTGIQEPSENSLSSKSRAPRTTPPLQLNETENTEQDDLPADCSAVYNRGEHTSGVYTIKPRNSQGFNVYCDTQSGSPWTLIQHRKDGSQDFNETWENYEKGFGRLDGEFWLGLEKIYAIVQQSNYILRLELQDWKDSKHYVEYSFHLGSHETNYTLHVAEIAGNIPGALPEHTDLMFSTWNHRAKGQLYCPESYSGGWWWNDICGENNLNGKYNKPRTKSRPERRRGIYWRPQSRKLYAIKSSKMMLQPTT
The experiment in a line: cell-based or functional assay.

Experiment [2] concerns the target T2, SP1 peptide (synthetic peptide with the sequence of the SP1 region of ANGPTL3) (mouse and human (the sequence is the …)).
T2 construct: also called ANGPTL3 SP1; hANGPTL3 SP1 peptide
T2 peptide: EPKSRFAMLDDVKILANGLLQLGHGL
Nature of the experiment: SPR (BIACORE 3000), antibody captured on anti-mouse IgG Fc chip, SP1 peptide injected, 1:1 model. As for the experimental part: (§1) The BIACORE® 3000 is a real-time biomolecular analysis system for detecting and quantifying protein-protein interactions using surface plasmon resonance technology. The following affinity constants were determined according to the manufacturer's instructions for the BIACORE® 3000 system: equilibrium dissociation constant (KD), association rate constant (kₒₙ), and dissociation rate constant (koff).
The BIACORE CM5 chip surface was coated with an anti-mouse IgG Fc by coupling 90 μg/ml of ImmunoPure Goat Anti-Mouse IgG Fc (Product No.: 31170, Pierce, Rockford, Ill. 61105) to the chip surface using an Amine Coupling Kit (Product No.: BR-1000-50, GE Healthcare, Uppsala Sweden). The antibody was then captured on the anti-mouse IgG Fc BIACORE chip surface by injecting the antibody at a flow rate of 10 μl/min for 30 sec. The association and dissociation phases, which are used to determine kₒₙ and koff constants, were generated by first injecting the SP1 peptide into the BIACORE® 3000 system having an antibody-coated chip surface for 2 minutes at a flow rate of 30 μl/min. […] The injection phase was used to determine the association rate constant, or kₒₙ. Following each injection, the SP1 peptide was dissociated from the antibody by flowing BIACORE HBS-EP buffer (Product No.: BR-1001-88, GE Healthcare, Uppsala Sweden) for 5 minutes over the peptide-antibody complex on the BIACORE CM5 chip surface. This dissociation phase was used to determine the dissociation rate constant, or koff. Prior to the next injection, the BIACORE chip surface was regenerated by injecting 10 mM HCl at a flow rate of 100 μl/min for 30 seconds.

Experiment [3] concerns the target T3, hANGPTL3T (full-length HIS-tagged human ANGPTL3) (human, UniProt Q9Y5C1 17-460).
T3 construct: Human ANGPTL3 with a glycine and His6 at the C-terminus, purified from conditioned medium of infected CHO cells; also called full-length ANGPTL3T; human ANGPTL3T
T3 sequence: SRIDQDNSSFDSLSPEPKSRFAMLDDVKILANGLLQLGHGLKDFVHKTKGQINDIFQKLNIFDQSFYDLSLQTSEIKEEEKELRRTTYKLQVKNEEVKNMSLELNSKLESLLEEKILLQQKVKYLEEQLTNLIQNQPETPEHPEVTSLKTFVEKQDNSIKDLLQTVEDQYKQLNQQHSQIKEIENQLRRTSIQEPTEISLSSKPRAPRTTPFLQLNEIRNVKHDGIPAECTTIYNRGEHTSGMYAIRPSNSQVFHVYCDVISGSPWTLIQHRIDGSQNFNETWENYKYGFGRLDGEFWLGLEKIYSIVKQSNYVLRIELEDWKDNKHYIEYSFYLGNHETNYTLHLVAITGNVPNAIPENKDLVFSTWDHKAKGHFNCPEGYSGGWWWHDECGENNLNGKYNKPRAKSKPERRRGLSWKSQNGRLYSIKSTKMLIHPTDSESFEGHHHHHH
Nature of the experiment: SPR (BIACORE 3000), antigen amine-coupled to CM5 chip, Fab injected, 1:1 model. On the procedure: as §1
(§2) Affinity constants of the 4.7.1, 4.8.3, and 4.9.1 antibodies for N′-hANGPTL3T and hANGPTL3T protein antigens were each determined as follows. The BIACORE CM5 chip surface was coated with a protein antigen by coupling either 10 μg/ml of N′-hANGPTL3T or 20 μg/ml of hANGPTL3T to the chip surface using an Amine Coupling Kit (Product No.: BR-1000-50, GE Healthcare, Uppsala Sweden). The association and dissociation phases, which are used to determine the kₒₙ and koff constants, were generated by first injecting a Fab fragment of the antibody (generated using a Fab Preparation Kit (Product No.: 44885, Pierce, Rockford, Ill. 61105) according to the manufacturer's instructions) into the BIACORE® 3000 system having a coated chip surface for 2 minutes at a flow rate of 30 μl/min. […] The injection phase was used to determine the association rate constant, or kₒₙ. Following each injection, the Fab fragment was dissociated from the protein antigen by flowing BIACORE HBS-EP buffer (Product No.: BR-1001-88, GE Healthcare, Uppsala Sweden) for 5 minutes over the antigen-Fab complex on the BIACORE CM5 chip surface. This dissociation phase was used to determine the dissociation rate constant, or koff. Prior to the next injection, the BIACORE chip surface was regenerated by injecting 10 mM HCl at a flow rate of 100 μl/min for 30 seconds.

The target of experiment [4] is T4, N'-hANGPTL3T (human, UniProt Q9Y5C1 20-243).
T4 construct: also called rN'-hANGPTL3T
T4 sequence: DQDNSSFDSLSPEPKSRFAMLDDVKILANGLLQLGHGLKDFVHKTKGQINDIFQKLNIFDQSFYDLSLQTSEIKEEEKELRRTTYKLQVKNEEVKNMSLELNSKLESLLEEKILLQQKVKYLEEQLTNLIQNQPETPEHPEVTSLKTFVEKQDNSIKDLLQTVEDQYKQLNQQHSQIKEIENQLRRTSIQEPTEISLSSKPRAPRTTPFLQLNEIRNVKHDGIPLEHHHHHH
The description is as above. As for the experimental part:
as §1, §2

The target of experiment [5] is T2, SP1 peptide (synthetic peptide with the …). Nature of the experiment: antibody capture ELISA (FIG. 9).
Experiment [6] concerns the target T3, hANGPTL3T (full-length HIS-tagged human …). Nature of the experiment: ELISA (data not shown).

Changes are numbered by the printed parent chain. Several values for one entry are separate records, joined by “and”; a condition that tells them apart may be missing. Identical values can stand only once.

B1: antibody 4.7.1 (antibody, IgG2b, V domains shown)
VH: EVQLQQSGPELVKPGASVKMSCKASGYTFTSYVMHWVKQKPGQGLEWIGYFNPYNDGTKYNEKFKGKATLTSDKSSSTAYMELSSLTSEDSAVYYCAREGDYYGYFDYWGQGTTLTVSS
VL: DIQMTQTTSSLSASLGDRVTISCRASQDISNFLNWYQQKPDGTVKLLIYYTSRLHSGVPSRFSGSGSGTDYSLTISNLEQEDIATYFCQQGNTLPPTFGGGTKLEIKR
notes: Biotinylated in the alanine-scanning ELISA
For the molecule B1, the “rescue of LPL activity (percentage increase in LPL activity in the presence of both ANGPTL3 and anti-ANGPTL3 antibody relative to ANGPTL3 alone)” value in experiment [1] was above 50%. Moreover, in experiment [2], the Kd turned out to be 26.1 nM, the dissociation rate constant (koff) was determined as 0.00546 s⁻¹ and the association rate constant (kon) turned out to be 209000 M⁻¹ s⁻¹.

B2: Fab fragment of antibody 4.7.1 (Fab, V domains shown)
VH: B1 VH
VL: B1 VL
As for B2, in experiment [3], the dissociation constant Kd is 45.3 nM and 117 nM; the koff is 0.00796 s⁻¹ and 0.00953 s⁻¹; the on-rate (kon) is 176000 M⁻¹ s⁻¹ and 81200 M⁻¹ s⁻¹. For the same molecule, in experiment [4], the Kd was 49.5 nM and 77.5 nM; the koff is 0.00915 s⁻¹ and 0.00899 s⁻¹; the kon is 185000 M⁻¹ s⁻¹ and 116000 M⁻¹ s⁻¹.

B3: antibody 4.9.1 (antibody, IgG1, V domains shown)
VH: B1 VH with F51I, K63N, L83F
VL: B1 VL with S30R, F32Y
notes: as for B1
Regarding B3, in experiment [1], the “rescue of LPL activity (percentage increase in LPL activity in the presence of both ANGPTL3 and anti-ANGPTL3 antibody relative to ANGPTL3 alone)” value was above 50%. Moreover, in experiment [2], the Kd was 46.1 nM, the off-rate (koff) worked out at 0.00778 s⁻¹ and the kon worked out at 169000 M⁻¹ s⁻¹.

B4: Fab fragment of antibody 4.9.1 (Fab, V domains shown)
VH: B1 VH with F51I, K63N, L83F
VL: B1 VL with S30R, F32Y
With B4, in experiment [3], the equilibrium dissociation constant (Kd) was 48.1 nM and 45.2 nM; the koff was 0.00622 s⁻¹ and 0.00777 s⁻¹; the kon was 129000 M⁻¹ s⁻¹ and 172000 M⁻¹ s⁻¹. Further, in experiment [4], the Kd is 45.4 nM and 55 nM; the off-rate constant (koff) is 0.00593 s⁻¹ and 0.00734 s⁻¹; the association rate constant (kon) is 131000 M⁻¹ s⁻¹ and 133000 M⁻¹ s⁻¹.

B5: antibody 4.8.3 (antibody, IgG2a, V domains shown)
VH: B1 VH with T30I, Y32C, F51I
VL: B1 VL with D1E, R24W, S30N, F32Y, E79K
notes: as for B1
Turning to B5, in experiment [1], the “rescue of LPL activity (percentage increase in LPL activity in the presence of both ANGPTL3 and anti-ANGPTL3 antibody relative to ANGPTL3 alone)” value was above 50%. Also, the binding result in experiment [5] is “binds”.

B6: Fab fragment of antibody 4.8.3 (Fab, V domains shown)
VH: B1 VH with T30I, Y32C, F51I
VL: B1 VL with D1E, R24W, S30N, F32Y, E79K
Regarding B6, in experiment [3], the Kd was 970 nM and 450 nM; the koff is 0.0216 s⁻¹ and 0.0273 s⁻¹; the kon is 22300 M⁻¹ s⁻¹ and 60000 M⁻¹ s⁻¹. Also, in experiment [4], the Kd is 210 nM and 251 nM; the koff is 0.019 s⁻¹ and 0.0275 s⁻¹; the kon is 90000 M⁻¹ s⁻¹ and 109000 M⁻¹ s⁻¹.

B7: antibody 5.35 (antibody, IgG2a, V domains shown)
VH: QVTLKESGPGILHPSQTLTLTCSFSGFSLNTFGLAVGWIRQPSGKGLEWLGHIWWDDHKYYNGVLKSRLTISKDSSKKQVFLRIANVDTADTARYYCARLETGTGFAYWGQGTLVTVSA
VL: DIVLTQSTPSVPVTPGESVSISCRSSKSLLDSNGITYLYWFLQRPGQSPQLLIYRMSKLASGVPDRFSGSGSETAFTLRISRVEAEDVGVYYCMQPLEYPFTFGAGTKLELNG
notes: as for B1
B7: in experiment [6], the binding result is on record as “binds”. In experiment [2], this molecule displayed a Kd of 1.8 nM, a koff of 0.0015 s⁻¹ and a kon of 835000 M⁻¹ s⁻¹.

B8: antibody 5.50 (antibody, IgG2b, V domains shown)
VH: EVQLQQSGPELVKPGASVKISCKASGFTFTDYYMNWVKQSHGESLEWIGDINPNNGGTIYNQKFRGKATLTVDKSSSTAYMELRSLTSEDSAVYYCVRLPWYFDVWGTGTTVTVSS
VL: DVLMTQTPLSLPVSLGDQASISCRSSQSILHSNGNTYLEWFLQKPGQSPKLLIYKVSNRFSGVPDRFSGSGSGTDFTLKISRVEAEDLGVYYCFQGSHVPYTFGGGTKLEIKR
notes: as for B1
Turning to B8, in experiment [6], the binding result is given as “binds”. In experiment [2], binding was put at a Kd of 1.78 nM, the off-rate constant (koff) came to 0.00193 s⁻¹ and the kon worked out at 1.08e+06 M⁻¹ s⁻¹.
